Experimental data as given in patent publication US20030166037.

T1: FasL1 FRET peptide (Aedans)EKELAELRESTS(Dabcyl)K-amide
T1 sequence: KELAELRESTS

T2: FasL1 FRET peptide (Aedans)…(Dabcyl)K-amide
T2 chain: KELAELRESTS

T3: 29CD23 FRET peptide (Aedans)…(Dabcyl)K-amide
T3 chain: ADLSSFKSQEL

T4: Peptide D7 (Aedans)ERNITEGEARGSVIL(Dabcyl)K-amide (not fully specified)
T4 chain: ERNITEGEARGSVIL

B1: truncated recombinant human Aggrecanase-2 (pro- and protease domains with C-terminal FLAG epitope) (protein)
chain: SISRARQVELLLVADASMARLYGRGLQHYLLTLASIANRLYSHASIENHIRLAVVKVVVLGDKDKSLEVSKNAATTLKNFCKWQHQHNQLGDDHEEHYDAAILFTREDLCGHHSCDTLGMADVGTICSPERSCAVIEDDGLHAAFTVAHEIGHLLGLSHDDSKFCEETFGSTEDKRLMSSILTSIDASKPWSKCTSATITEFLDDGHGNCLLDLPRKQILGGDYKDDDDKG
B2: truncated recombinant human Aggrecanase-1 (pro- and protease domains with C-terminal FLAG epitope) (protein)
chain: FASLSRFVETLVVADDKMAAFHGAGLKRYLLTVMAAAAKAFKHPSIRNPVSLVVTRLVILGSGEEGPQVGPSAAQTLRSFCAWQRGLNTPEDSDPDHFDTAILFTRQDLCGVSTCDTLGMADVGTVCDPARSCAIVEDDGLQSAFTAAHELGHVFNMLHDNSKPCISLNGPLSTSRHVMAPVMAHVDPEEPWSPCSARFITDFLDNGYGHCLLDKPEAPLHLPVTGDYKDDDDKG

What was measured:
[1] = tested on: T1, FasL1 FRET peptide (Aedans)EKELAELRESTS(Dabcyl)K-amide
[2] = target: T2, FasL1 FRET peptide …; experiment: FRET peptide cleavage kinetics, non-linear fit of rate against substrate concentration (the filing calls it analysis of affinities)
[3] = target: T3, 29CD23 FRET peptide …; experiment: as above
[4] = target: T4, Peptide D7 …
[5] = target: T2, FasL1 FRET peptide …
[6] = target: T3, 29CD23 FRET peptide …

| Molecule | FRET peptide cleavage in similar screening assays [1] | FRET peptide cleavage activity [4] | Relative proteolytic Activity [5] | other results |
| --- | --- | --- | --- | --- |
| MMP7 (Chemicon, Cat. #CC1059) | shown in similar screening assays to be a suitable substrate for the metalloproteases MMP7 and MMP 13 | – | – | – |
| MMP 13 (Chemicon, Cat. #CC068) | shown in similar screening assays to be a suitable substrate for the metalloproteases MMP7 and MMP 13 | – | – | – |
| B1 | – | Neither Aggrecanase-1 nor Aggrecanase-2 showed any activity on this peptide | ***** | Km [2]: 80 µM; Km [3]: 40 µM; Vm [5]: 2.8 rfu/min; Relative proteolytic Activity [6]: *****; Vm [6]: 0.6 rfu/min |
| B2 | – | Neither Aggrecanase-1 nor Aggrecanase-2 showed any activity on this peptide | * | – |
